Source: US20230265179A1 (TWIST BIOSCIENCE, published 2023)
Residue numbers refer to the chain shown, from its start.

T1: CD40L (UniProt P29965 113-261, limits assumed)
T1 construct: SPR analyte
T1 sequence (looked up): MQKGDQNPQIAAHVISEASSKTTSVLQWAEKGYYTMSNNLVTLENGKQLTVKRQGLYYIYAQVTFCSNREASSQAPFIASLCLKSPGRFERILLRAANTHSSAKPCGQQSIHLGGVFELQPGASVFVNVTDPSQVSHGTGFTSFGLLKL

T2: CD40L over-expressed on Expi293 cells (UniProt P29965 1-261, limits assumed)
T2 construct: whole, on cells; also called cytokine over-expressing Expi293 cells
T2 sequence (looked up): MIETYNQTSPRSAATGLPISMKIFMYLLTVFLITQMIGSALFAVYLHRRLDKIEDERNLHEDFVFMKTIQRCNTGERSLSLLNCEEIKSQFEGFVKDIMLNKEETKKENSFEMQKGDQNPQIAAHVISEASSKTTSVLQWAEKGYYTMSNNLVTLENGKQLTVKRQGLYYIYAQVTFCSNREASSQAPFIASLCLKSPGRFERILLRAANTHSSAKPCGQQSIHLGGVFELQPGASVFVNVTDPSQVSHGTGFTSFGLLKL

B1: CD40L-19 (VHH)
VHH: EVQLVESGGGLVQPGGSLRLSCAASGTITSAVFMGWFRQAPGKEREWVATISSHGLPVYADSVKGRFTISADNSKNTAYLQMNSLKPEDTAVYYCAIDEGMDYDGNFYDWGQGTLVTVSS
B2: CD40L-16 (VHH)
VHH: EVQLVESGGGLVQPGGSLRLSCAASGRIFSTYFMGWFRQAPGKEREWISTVYSNGHTYYADSVKGRFTISADNSKNTAYLQMNSLKPEDTAVYYCAAWLNGGNRWGQGTLVTVSS
B3: CD40L-52 (VHH)
VHH: B2 VHH with I48V, V51I, H56T, T57P, Y58A
B4: CD40L-25 (VHH)
VHH: EVQLVESGGGLVQPGGSLRLSCAASGFTFSRYEMGWFRQAPGKEREFVAAVTEDGSINYADSVKGRFTISADNSKNTAYLQMNSLKPEDTAVYYCAAVYVSTWGNGYDWGQGTLVTVSS
B5: CD40L-57 (VHH)
VHH: B4 VHH with A50T, V51I, D54G, S56A, I57R
B6: CD40L-14 (VHH)
VHH: EVQLVESGGGLVQPGGSLRLSCAASGFTFSTYDMGWFRQAPGKEREFVAAVSQSGLLTFYADSVKGRFTISADNSKNTAYLQMNSLKPEDTAVYYCASDHYDTDTKSDVYNWGQGTLVTVSS
B7: CD40L-31 (VHH)
VHH: B6 VHH with S30D, T31D, Y32S, A50V, S52N, Q53W, L56S, L57S, T58E, F59S
B8: CD40L-43 (VHH)
VHH: B6 VHH with T28S, F29L, S30D, T31D, A50V, V51I, Q53W, L56A, L57Y, F59E
B9: CD40L-32 (VHH)
VHH: EVQLVESGGGLVQPGGSLRLSCAASGFGFGSYDMGWFRQAPGKEREFVAAIYSDGGSAYYADSVKGRFTISADNSKNTAYLQMNSLKPEDTAVYYCASDHYDTDTKSDVYNWGQGTLVTVSS
B10: CD40L-56 (VHH)
VHH: B6 VHH with F29L, S30D, T31H, A50V, V51I, S52N, Q53W, L56A, L57Y, F59E
B11: CD40L-50 (VHH)
VHH: B6 VHH with S30D, T31D, Y32S, V51I, Q53M, L56E, L57D, T58A, F59A
B12: CD40L-40 (VHH)
VHH: B6 VHH with S30D, T31D, F47L, V51I, Q53A, S54T, L56D, L57D, F59Y
B13: CD40L-54 (VHH)
VHH: B9 VHH with G28T, G30D, S31D, Y52A, S53W, D54T, G56T, S57N, A58S
B14: CD40L-42 (VHH)
VHH: EVQLVESGGGLVQPGGSLRLSCAASGSMSSINAMGWFRQAPGKEREFVAVIYSSDGSTLYADSVKGRFTISADNSKNTAYLQMNSLKPEDTAVYYCAAEPYGSGSSLISEYDWGQGTLVTVSS
B15: CD40L-9 (VHH)
VHH: B14 VHH with M28G, S29L
B16: CD40L-6 (VHH)
VHH: B14 VHH with M28I, S29D, S30N, N32H, V48I, S53W, S54R, T58S
B17: CD40L-17 (VHH)
VHH: B14 VHH with S27R, M28T, S30N, N32Y, I108M
B18: CD40L-12 (VHH)
VHH: EVQLVESGGGLVQPGGSLRLSCAASGRSFSTYTMGWFRQAPGKEREFVAVIYTSDGANLYADSVKGRFTISADNSKNTAYLQMNSLKPEDTAVYYCAAETYGSGSSLMSEYDWGQGTLVTVSS
B19: CD40L-27 (VHH)
VHH: B14 VHH with M28I, N32H, V48I, S53W, S54R, T58S, I108M
B20: CD40L-18 (VHH)
VHH: B14 VHH with M28I, I31V, V48I, S53W, S54R, T58S
B21: CD40L-30 (VHH)
VHH: B14 VHH with S27N, M28I, S29F, S30R
B22: CD40L-28 (VHH)
VHH: EVQLVESGGGLVQPGGSLRLSCAASGVTVDYSGMGWFRQAPGKEREFVSAISSYSGNTYYADSVKGRFTISADNSKNTAYLQMNSLKPEDTAVYYCAAAYGGGLYRDPRSYDWGQGTLVTVSS
B23: CD40L-22 (VHH)
VHH: EVQLVESGGGLVQPGGSLRLSCAASGVTLDDYAMGWFRQAPGKERELVAAITNGGITTHYADSVKGRFTISADNSKNTAYLQMNSLKPEDTAVYYCAADVGPTVKWGQGTLVTVSS
B24: CD40L-59 (VHH)
VHH: B23 VHH with V27F, D31Y, A50S, T52S, I56L, T57S, H59Y
B25: CD40L-20 (VHH)
VHH: EVQLVESGGGLVQPGGSLRLSCAASGVITLDSNAMGWFRQAPGKEREFVAAITWDGGYTRYADSVKGRFTISADNSKNTAYLQMNSLKPEDTAVYYCAAEATFPTWNRGSEADYDWGQGTLVTVSS
B26: CD40L-21 (VHH)
VHH: EVQLVESGGGLVQPGGSLRLSCAASGRIFSTYFMGWFRQAPGKEREFVAASYTGGSGGSTVYADSVKGRFTISADNSKNTAYLQMNSLKPEDTAVYYCAAWLNGGNRWGQGTLVTVSS
B27: CD40L-15 (VHH)
VHH: EVQLVESGGGLVQPGGSLRLSCAASGFTFDDYDMGWFRQAPGKERELVASITSGGSTNYADSVKGRFTISADNSKNTAYLQMNSLKPEDTAVYYCAIPHGIDLYTFDWGQGTLVTVSS
B28: CD40L-24 (VHH)
VHH: EVQLVESGGGLVQPGGSLRLSCAASGGAFSVYAMGWFRQAPGKEREFLASISGSGGSTYYADSVKGRFTISADNSKNTAYLQMNSLKPEDTAVYYCARDGGTYGMDVWGQGTLVTVSS
B29: CD40L-33 (VHH)
VHH: EVQLVESGGGLVQPGGSLRLSCAASGNIFINNAMGWFRQAPGKEREFVASIEWDGGGAYYADSVKGRFTISADNSKNTAYLQMNSLKPEDTAVYYCARDGGTYGMDVWGQGTLVTVSS
B30: CD40L-36 (VHH)
VHH: EVQLVESGGGLVQPGGSLRLSCAASGFSLDDYAMGWFRQAPGKEREFVASVNWSGKDTYYADSVKGRFTISADNSKNTAYLQMNSLKPEDTAVYYCARDGGTYGMDVWGQGTLVTVSS

What follows are binders tested against T1, CD40L (assay: SPR (Carterra LSA), antibody amine-coupled, 1:1 model).
Description: SPR experiments were performed on a Carterra LSA SPR biosensor equipped with a HC30M chip at 25° C. in HBS-TE. Antibodies were diluted to 10 μg/mL and amine-coupled to the sensor chip by EDC/NHS activation, followed by ethanolamine HCl quenching. Increasing concentrations of analyte were flowed over the sensor chip in HBS-TE with 0.5 mg/mL BSA with 5-minute association and 15-minute dissociation. Following each injection cycle the surface was regenerated with 2× 30-second injections of IgG elution buffer (Thermo). Data were analyzed in Carterra's Kinetics Tool software with 1:1 binding model.

Row | Kd [nM] | koff [s⁻¹] | kon [M⁻¹ s⁻¹] | Binder
1 | 6.72 | 0.00119 | 177000 | B1
2 | 7.93 | 0.000278 | 35100 | B2
3 | 7.56 | 0.000453 | 59900 | B3
4 | 1.2 | 0.000176 | 147000 | B4
5 | 2.92 | 0.000769 | 263000 | B5
6 | 1.78 | 0.000538 | 303000 | B6
7 | 6.5 | 0.000581 | 89300 | B7
8 | 0.251 | 0.000173 | 690000 | B8
9 | 0.272 | 6.18e-05 | 227000 | B9
10 | 0.422 | 0.000208 | 492000 | B10
11 | 0.7 | 0.000577 | 824000 | B11
12 | 0.806 | 0.000319 | 396000 | B12
13 | 0.758 | 0.000399 | 526000 | B13
14 | 2.46 | 0.000639 | 260000 | B14
15 | 1.13 | 0.000284 | 251000 | B15
16 | 0.319 | 8.01e-05 | 251000 | B16
17 | 2.32 | 0.000363 | 157000 | B17
18 | 1.03 | 0.000266 | 257000 | B18
19 | 0.749 | 0.000155 | 207000 | B19
20 | 1.77 | 0.000391 | 221000 | B20
21 | 4.04 | 0.000633 | 157000 | B21
22 | 2.87 | 0.000445 | 155000 | B22
23 | 1.02 | 0.000394 | 387000 | B23
24 | 1.27 | 0.000315 | 248000 | B24
25 | 1.25 | 0.000271 | 217000 | B25
26 | 53.8 | 0.00083 | 15400 | B26
27 | 1.29 | 0.000384 | 299000 | B27
28 | 5.74 | 0.000824 | 143000 | B28
29 | 2.63 | 0.000546 | 208000 | B29
30 | 0.819 | 0.000353 | 431000 | B30

The binders below were run against T2, CD40L over-expressed on Expi293 cells (assay: flow cytometry, 100 nM antibody, CD40L-Expi293 vs parent Expi293 cells;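 also: ratio is the mean fluorescence intensity on CD40L-overexpressing Expi293 cells divided by the mean fluorescence intensity on parental Expi293 cells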).
Description: All incubations and washes were in buffer containing PBS+1% BSA. MFI Ratio is defined by the mean fluorescence intensity (MFI) of the cytokine over-expressing Expi293 cell over the Expi293 parent cell. […] EC50 was calculated in GraphPad Prism.

Row | 100 nM FACS (MFI Ratio) [ratio] | Binder
31 | 1.9 | B1
32 | 47.8 | B2
33 | 91.9 | B3
34 | 93.2 | B4
35 | 64 | B5
36 | 22.5 | B6
37 | 18.5 | B7
38 | 83.8 | B8
39 | 152 | B9
40 | 68.4 | B10
41 | 131 | B11
42 | 74.2 | B12
43 | 100 | B13
44 | 40 | B14
45 | 21.1 | B15
46 | 67.4 | B16
47 | 45.6 | B17
48 | 46.2 | B18
49 | 44.9 | B19
50 | 29.8 | B20
51 | 24.3 | B21
52 | 41.9 | B22
53 | 47.6 | B23
54 | 66.7 | B24
55 | 24.6 | B25
56 | 99.2 | B26
57 | 29 | B27
58 | 42.7 | B28
59 | 74.1 | B29
60 | 59.2 | B30
